Data from paper PMC2889002.

Molecular target: GST fusion of the full-length cytoplasmic loop of connexin43 (GST-CLFL) (UniProt P23242)
Experiment: pull-down

UniProt P23242, sequence (P23242 98-155): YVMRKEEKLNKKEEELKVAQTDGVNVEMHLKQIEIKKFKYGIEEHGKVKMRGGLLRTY

- affinity relative to that of Cx43-CT for β-tubulin: 0.2 fold
Substance: β-tubulin (Tubulin β5/2c) of mouse brain (from UniProt P99024 1-444) (natural protein)
